First the molecules themselves.
B1: hcAb 2.20 (Nb 2.20 fused to the human IgG1 hinge and Fc) (Fc fusion)
chain: QVQLVESGGGSVQAGGSLRLSCAASGYTYNNYYMGWFRQAPGKEREGVAAINSDGLDTYVADSVKGRFTISRDNAKDTVHLQMNSLKPEDTAIYSCATGRTVYYSGYDFRLSVDDYWGQGTQVTVSS
B2: Nb 2.11, monomeric nanobody (VHH)
VHH: QVQLVESGGGSVQAGGSLRLSCAASGDASNRKCVSWFRRAPGKEREGVALIFPVGSSTAYADSVKGRFTISQDSAKDTVYLQMNNLKPEDSGTYYCAAVSWGGRCNLETQTVTFWGQGTQVTVSS
B3: hcAb 2.11 (Nb 2.11 fused to the human IgG1 hinge and Fc) (Fc fusion)
chain: QVQLVESGGGSVQAGGSLRLSCAASGDASNRKCVSWFRRAPGKEREGVALIFPVGSSTAYADSVKGRFTISQDSAKDTVYLQMNNLKPEDSGTYYCAAVSWGGRCNLETQTVTFWGQGTQVTVSS
B4: Nb 1.16, monomeric nanobody (VHH)
VHH: QVQLVESGGGSVQAGGSLRLSCAASGNTSKRKCVGWFRRAPGKEREGVTLIYTVGGSTVYADSVKGRFTISQDNAKDTVYLQMNSLKPEDSAMYYCAAESWGRQCNLETHRFTFWGQGTQVTVSS
B5: hcAb 1.16 (Nb 1.16 fused to the human IgG1 hinge and Fc) (Fc fusion)
chain: QVQLVESGGGSVQAGGSLRLSCAASGNTSKRKCVGWFRRAPGKEREGVTLIYTVGGSTVYADSVKGRFTISQDNAKDTVYLQMNSLKPEDSAMYYCAAESWGRQCNLETHRFTFWGQGTQVTVSS
B6: hcAb 1.29 (Nb 1.29 fused to the human IgG1 hinge and Fc) (Fc fusion)
chain: QVQLVESGGGSVQAGGSLRLSCAASGYTINTDAVAWFRQAPGKGDERVAVIYTGSGNTNYADSVKGRFTISQDNAKNTVYLQMNSLKPEDTALYYCASGYYGASGYDFNNWGQGTQVTVSS
B7: hcAb 1.10 (Nb 1.10 fused to the human IgG1 hinge and Fc) (Fc fusion)
chain: QVQLVESGGGSVQAGGSLRLSCAASGYTYSTCRKGWYRQAPGKERELVASITADGATYYLDSVKGRLTISQDNAKNTVYLQMNSLKPEDTAVYYCAASVKDFTCTFNSWGQGTQVTVSS
B8: hcAb 2.15 (Nb 2.15 fused to the human IgG1 hinge and Fc) (Fc fusion)
chain: QVQLVESGGGSVQAGGSLKLSCAASGYASWARKCIGWFRQAPGQEREGVAAIFDFDGSTYYSDSVKGRFTISGDNAKNTVSLQMNSLLPKDTAVYYCTVAFGTCDNWYRGRGDYWGQGTQVTVSS
B9: Nb 2.15, monomeric nanobody (VHH)
VHH: QVQLVESGGGSVQAGGSLKLSCAASGYASWARKCIGWFRQAPGQEREGVAAIFDFDGSTYYSDSVKGRFTISGDNAKNTVSLQMNSLLPKDTAVYYCTVAFGTCDNWYRGRGDYWGQGTQVTVSS
B10: hcAb 2.1 (Nb 2.1 fused to the human IgG1 hinge and Fc) (Fc fusion)
chain: QVQLVESGGGSVQAGGSLRLSCAAFGATISSAHMGWFRQAPGKEREGVAFRYTDGSSTYYTTSVRGRFTISQDNAKNTVYLQMNSLKPEDTAMYYCASNPSWGRLVGGQYNNWGQGTQITVSS
B11: Nb 2.1, monomeric nanobody (VHH)
VHH: QVQLVESGGGSVQAGGSLRLSCAAFGATISSAHMGWFRQAPGKEREGVAFRYTDGSSTYYTTSVRGRFTISQDNAKNTVYLQMNSLKPEDTAMYYCASNPSWGRLVGGQYNNWGQGTQITVSS
B12: hcAb 1.26 (Nb 1.26 fused to the human IgG1 hinge and Fc) (Fc fusion)
chain: QVQLVESGGGLVQAGGSLRLSCAATGYTWSSVCMGWFRQAPGKEREGVAGIPSGRNRPYYADSVKGRFTISQDNAKNAVFLLMNSLKPEDTAIYYCAPCSAPHDPEYNYWGQGTQVTVSS

The assay concerns the target monomeric SARS-CoV-2 RBD (S residues 332-534) with Flag peptide and 8xHis-tag (SARS-CoV-2 (WA1 strain), UniProt P0DTC2 332-534). The assay can be described thus: SPR. Background: SPR reads the build-up and loss of mass on a sensor chip optically.
Turning to B1, the Kd (commonly the concentration at which binding is half-saturated) came to 0.21 nM.

B2 registered an equilibrium dissociation constant (Kd) of 2.17 nM.

B3 registered a Kd of 0.16 nM.

For the molecule B4, the dissociation constant (Kd) is 3.59 nM.

B5 yielded a dissociation constant Kd of 0.25 nM.

As to B6, binding was put at a Kd of 0.63 nM.

Molecule B7 registered a Kd of 0.77 nM.

As for B8, the equilibrium dissociation constant (Kd) was found to be 0.08 nM.

As for B9, binding was put at a Kd of 0.39 nM.

As for B10, the Kd was found to be 0.36 nM.

For B11, binding was characterised by a dissociation constant (Kd) of 1.74 nM.

For the molecule B12, the equilibrium dissociation constant (Kd) worked out at 0.08 nM.

For the origin of these results see PMC9082315 (2022).
